Results published in US7144731B2, “SCF antibody compositions and methods of using the same” (Amgen Inc., priority 1989, dated 2006).

What was measured:
irradiated dogs = assay: Canine DLA-identical littermate marrow transplantation; format: in vivo, dog; details: 920 cGy TBI + marrow
Text: SCF alone enhances hematopoietic recovery following bone marrow transplantation. A variety of experimental variables have been tested in a canine model of bone marrow transplantation, Schuening et al., 76 636–640. In one set of experiments for the present invention, dogs received either G-CSF or SCF after 920 cGy of total body irradiation and 4×10^8 mononuclear marrow cells per kilogram from a DLA-identical littermate. The hematologic recovery, as measured by day of neutrophil recovery to 500 or 1000/mm^3, is accelerated when either SCF or G-CSF is administered compared to control animals that received no growth factor (Table 21). Recovery was 2–6 days earlier in animals that received SCF than it was in those that received no growth factor. As noted above, combinations of appropriate growth factors with SCF will accelerate and enhance the response to those growth factors following hematopoietic transplantation.

[1] = tested on: 5-FU treated mouse bone marrow cells; assay: HPP-CFC assay; format: cell-based; details: COS-1 supernatant
Text: There are a variety of biological activities which can be attributed to the natural mammalian rat SCF as well as the recombinant rat SCF protein. One such activity is its effect on early hematopoietic cells. This activity can be measured in a High Proliferative Potential Colony Forming Cell (HPP-CFC) assay [Zsebo, et al., supra (1988)]. To investigate the effects of factors on early hematopoietic cells, the HPP-CFC assay system utilizes mouse bone marrow derived from animals 2 days after 5-fluorouracil (5-FU) treatment. […] The rat SCF is plated in the presence of CSF-1 or IL-6 in semi-solid agar cultures. The agar cultures contain McCoys complete medium (GIBCO), 20% fetal bovine serum, 0.3% agar, and 2×10^5 bone marrow cells/ml. The McCoys complete medium contains the following components: 1× McCoys medium supplemented with 0.1 mM pyruvate, 0.24× essential amino acids, 0.24× non-essential amino acids, 0.027% sodium bicarbonate, 0.24× vitamins, 0.72 mM glutamine, 25 μg/ml L-serine, and 12 μg/ml L-asparagine. The bone marrow cells are obtained from Balb/c mice injected i.v. with 150 mg/kg 5-FU. The femurs are harvested 2 days post 5-FU treatment of the mice and bone marrow is flushed out. The red blood cells are lysed with red blood cell lysing reagent (Becton Dickenson) prior to plating. Test substances are plated with the above mixture in 30 mm dishes. Fourteen days later the colonies (>1 mm in diameter) which contain thousands of cells are scored. This assay was used throughout the purification of natural mammalian cell-derived rat SCF.

[2] = tested on: murine mast cell line, MC/9; assay: MC/9 ^3H-thymidine uptake assay; format: cell-based
Procedure: Another useful biological activity of both naturally-derived and recombinant rat SCF is the ability to cause the proliferation of the […] murine mast cell line, MC/9 (ATCC CRL 8306). MC/9 cells are cultured with a source of […] according to the ATCC CRL 8306 protocol. The medium used in the bioassay is RPMI 1640, 4% fetal bovine serum, 5×10^−5M 2-mercaptoethanol, and 1× glutamine-pen-strep. The MC/9 cells proliferate in response to SCF without the requirement for other growth factors. This proliferation is measured by first culturing the cells for 24 h without growth factors, plating 5000 cells in each well of 96 well plates with test sample for 48 h, pulsing for 4 h with 0.5 uCi ^3H-thymidine (specific activity 20 Ci/mmol), harvesting the solution onto glass fiber filters, and then measuring specifically-bound radioactivity. This assay was used in the purification of mammalian cell derived rat SCF after the ACA 54 gel filtration step, section C2 of this Example. Typically, SCF caused a 4–10 fold increase in CPM over background.

normal human bone marrow = assay: Human CFU-GM assay; format: cell-based
human bone marrow = assay: Human bone marrow colony assay; format: cell-based; details: COS-1 CM, 20 U/ml EPO, 14 days, colonies ≥0.2 mm
Procedure: The cDNA of human SCF corresponding to amino acids 1–162 obtained by PCR reactions outlined in Example 3D, was expressed in COS-1 cells as described for the rat SCF in Example 4. COS-1 supernatants were assayed on human bone marrow as well as in the murine HPP-CFC and MC/9 assays. […] The culture conditions of the assay were as follows: human bone marrow from healthy volunteers was centrifuged over Ficoll-Hypaque gradients (Pharmacia) and cultured in 2.1% methyl cellulose, 30% fetal calf serum, 6×10^−5 M 2-mercaptoethanol, 2 mM glutamine, ISCOVE'S medium (GIBCO), 20 U/ml EPO, and 1×10^5 cells/ml for 14 days in a humidified atmosphere containing 7% O2, 10% CO2, and 83% N2. Only those colonies of 0.2 mm in size or larger are indicated.
Recombinant human SCF was tested in agar colony assays on human bone marrow in combination with other growth factors as described above.

KG-1 = KG-1 soft agar cloning assay; format: cell-based, human; details: COS-1 supernatant, 25 μl assayed; triplicate
Procedure: Another activity of recombinant human SCF is the ability to cause proliferation in soft agar of the human acute myelogenous leukemia (AML) cell line, KG-1 (ATCC CCL 246). COS-1 supernatants from transfected cells were tested in a KG-1 agar cloning assay [Koeffler et al., Science, 200, 1153–1154 (1978)] essentially as described except cells were plated at 3000/ml.

W/W^v mice = assay: Bone marrow transplantation model in W/W^v mice; format: in vivo, mouse
Procedure: A. Rat SCF in Bone Marrow Transplanation COS-1 cells were transfected with V19.8 SCF^1-162 in a large scale experiment (T175 cm^2 flasks instead of 60 mm dishes) as described in Example 4. Approximately 270 ml of supernatant was harvested. This supernatant was chromatographed on wheat germ agglutinin-agarose and S-Sepharose essentially as described in Example 1. The recombinant SCF was evaluated in a bone marrow transplantation model based on murine W/W^v genetics. The W/W^v mouse has a stem cell defect which among other features results in a macrocytic anemia (large red cells) and allows for the transplantation of bone marrow from normal animals without the need for irradiation of the recipient animals [Russel, et al., Science, 144, 844–846 (1964)). […]
In the following example, each group contained six age matched mice. […] The blood profile of the recipient animals is followed at different times post transplantation and engraftment of the donor marrow is determined by the shift of the peripheral blood cells from recipient to donor phenotype. The conversion from recipient to donor phenotype is detected by monitoring the forward scatter profile (FASCAN, Becton Dickenson) of the red blood cells. […] An independent qualitative indicator of engraftment is the hemoglobin type detected by hemoglobin electrophoresis of the recipient blood [Wong, et al., Mol. and Cell. […]

B1: rcG-CSF: recombinant canine G-CSF (protein, UniProt P35834 1-175, looked up)
Granulocyte …: MAPLGPTGPLPQSFLLKCLEQMRKVQADGTALQETLCATHQLCHPEELVLLGHALGIPQPPLSSCSSQALQLMGCLRQLHSGLFLYQGLLQALAGISPELAPTLDTLQLDTTDFAINIWQQMEDLGMAPAVPPTQGTMPAFTSAFQRRAGGVLVASNLQSFLELAYRALRHFAKP
Recovery of ANC > 1000/mm^3 (irradiated dogs; 10 days treatment following transplant): Day 8 | Recovery of ANC > 500 mm^3 (irradiated dogs; 10 days treatment following transplant (rcSCF 200, rcG-CSF 10 μg/kg/day SC)): Day 7

B2: V19.8 rat SCF^1-162: recombinant rat SCF truncated at amino acid 162, supernatant of COS-1 or CHO cells transfected with V19.8 (protein)
chain: MKKTQTWIITCIYLQLLLFNPLVKTQEICRNPVTDNVKDITKLVANLPNDYMITLNYVAGMDVLPSHCWLRDMVTHLSVSLTTLLDKFSNISEGLSNYSIIDKLGKIVDDLVACMEENAPKNVKESLKKPETRNFTPEEFFSIFNRSIDAFKDFMVASDTSD
Colony #/200,000 cells ([1]; 3 μl CM assayed): 8 | Colony #/200,000 cells ([1]; 6 μl CM assayed): 30 | Colony #/200,000 cells ([1]; 12 μl CM assayed): >50 | Colony #/200,000 cells ([1]; 25 μl CM assayed): >50 | Colony #/200,000 cells ([1]; 50 μl CM assayed): >50 | Colony #/200,000 cells ([1]; 100 μl CM assayed): >50 | cpm ([2]; COS-1 supernatant, 3 μl CM assayed): 9,638 cpm | cpm ([2]; COS-1 supernatant, 6 μl CM assayed): 11,482 cpm | cpm ([2]; COS-1 supernatant, 12 μl CM assayed): 11,322 cpm | cpm ([2]; COS-1 supernatant, 25 μl CM assayed): 11,648 cpm | cpm ([2]; stable CHO cell supernatant, volume assayed 1.5): 7,160 cpm | cpm ([2]; stable CHO cell supernatant, volume assayed 3): 14,714 cpm | cpm ([2]; stable CHO cell supernatant, volume assayed 6): 30,657 cpm | cpm ([2]; stable CHO cell supernatant, volume assayed 12): 34,973 cpm | cpm ([2]; stable CHO cell supernatant, volume assayed 25): 33,926 cpm | synergistic activity in CFU-GM assay (normal human bone marrow): synergized with human GM-CSF, human IL-3, and human CSF-1 | Colony #/100,000 cells (±SEM) (normal human bone marrow; average of triplicate cultures, SCF = COS-1 supernatant 4 days after transfection): 0 | Colony #/100,000 cells ± SD (human bone marrow; 50 μl assayed): 10 | Colony #/100,000 cells ± SD (human bone marrow; 100 μl assayed): 13 ± 1 | Colony #/3000 Cells ± SD (KG-1): 6 ± 1 | time to conversion to donor phenotype (W/W^v mice; SCF pre-treated group (600 U/ml, 37° C., 20 min)): ≤ 29 days post-transplantation | engraftment of donor marrow vs untreated control (W/W^v mice; cells pre-treated with 600 U/ml or recipients ~400 U/day sub-Q for 3 days): engrafted faster
